Results reported in publication PMC6771245, “CMKLR1-targeting peptide tracers for PET/MR imaging of breast cancer” (Theranostics, 2019).
*1 amine or outer side, *2 acyl side, *3 side chain or, on linkers, in order; H or OH if unused. Where a SMILES comes first, the peptide text is derived from it. [ ]: non-standard residue; d: D form. The star is where a group is joined. DOTA = O=C(O)CN1CCN(CC(=O)O)CCN(CC(=O)*)CCN(CC(=O)O)CC1; NH(CH2)9CO = O=C(CCCCCCCCCN[*:1])[*:2]; Hyp = O=C(O)[C@@H]1C[C@@H](O)CN1; Tic = O=C(O)[C@@H]1Cc2ccccc2CN1; Cha = N[C@@H](CC1CCCCC1)C(=O)O; Cit = NC(=O)NCCC[C@H](N)C(=O)O; Ahx = NCCCCCC(=O)O

Experiments:
[1] = tested on: DU4475/A549 xenograft model; assay: in vivo; conditions: mouse
Excerpt: (§1) For in vivo experiments, at least 8-week-old female athymic NMRI-Foxn1^nu /Foxn1^nu mice (Janvier Labs, Saint-Berthevin, France) were used. Animal care followed institutional guidelines and all experiments were approved by local animal research authorities. For the generation of tumor xenografts, 5 x 10^6 cells of both DU4475 and A549 cells were inoculated subcutaneously into the right and left shoulder, respectively (1:1 phosphate-buffered saline [PBS]/Matrigel Basement Membrane Matrix High Concentration, Corning, Corning, USA). Part of the animals received SW13 lung cancer cells as a CMKLR1-negative control tumor. For the analysis of biodistribution, only data of […] and A549 xenograft tumors are used. Tumors were allowed to grow for two to four weeks (tumor volume > 100 mm^3) after cell inoculation.
(§2) Radiolabeling experiments were performed on a Modular Lab PharmTracer synthesis module (Eckert & Ziegler, Berlin, Germany) which allows fully automated cassette-based labeling of gallium tracers utilizing a pharmaceutical grade ^68Ge/^68Ga generator (GalliaPharm, 1.85 GBq, good manufacturing practice [GMP]-certified; Eckert & Ziegler GmbH, Berlin, Germany). Cassettes were GMP-certified and sterile. They were used without pre-conditioning of the cartridges. The gallium generator was eluted with aqueous HCl (0.1 M, 7 mL) and the eluate was purified on an ion-exchange cartridge followed by elution using 1 mL of 0.1 M HCl in acetone. The peptide-DOTA conjugate (50 µg from a stock solution 1 mg/mL in 10% dimethyl sulfoxide [DMSO] in water) was mixed with 500 µL 0.1 M HEPES buffer (pH 7) and heated for 500 seconds at 95 °C. After the reaction, the mixture was passed through a C-18 cartridge for purification and the tracer was eluted from the cartridge with ethanol. In order to control the quality of radiolabeling, the radiochemical yield, purity, and specific activity for all five peptide-DOTA conjugates and each individual labeling experiment was determined. Overall, a radiochemical yield of 82.1% ± 6.7%, a radiochemical purity of 98.1 ± 4.6% and a molar activity of 8.6 GBq/µmol ± 2.7 GBq/µmol was achieved (Table S1). Before animal injection, the activity was equilibrated to neutral pH using 1 M sodium hydrogen carbonate. It was further diluted with saline to ≤ 10% ethanol.
(§3) Tumor-bearing mice were injected with approximately 10 MBq of ^68Ga-labeled DOTA-peptide or 1 MBq of ^177Lu-labeled DOTA-peptide to the tail vein via a catheter. Mice were sacrificed and dissected one or two hours after injection. Tumor, blood, stomach, pancreas, small intestine, colon, liver, spleen, kidney, heart, lung, muscle and femur samples were weighed and uptake of radioactivity was measured by a gamma counter. To determine the effect of unlabeled ligand on the tumor uptake, 200 nmol CG34 peptide (100-fold excess) was co-injected.

in vivo = conditions: female, mouse, iv, 10 MBq, total radioactivity
Excerpt: as §1, §2, §3

[2] = athymic NMRI-Foxn1^nu/Foxn1^nu, A549 tumor uptake
[3] = athymic NMRI-Foxn1^nu/Foxn1^nu, DU4475 tumor uptake
[4] = athymic NMRI-Foxn1^nu/Foxn1^nu, blood uptake
[5] = athymic NMRI-Foxn1^nu/Foxn1^nu, heart uptake
[6] = athymic NMRI-Foxn1^nu/Foxn1^nu, kidney uptake
[7] = athymic NMRI-Foxn1^nu/Foxn1^nu, liver uptake
[8] = athymic NMRI-Foxn1^nu/Foxn1^nu, lung uptake
[9] = athymic NMRI-Foxn1^nu/Foxn1^nu, muscle uptake
[10] = athymic NMRI-Foxn1^nu/Foxn1^nu, spleen uptake
[11] = athymic NMRI-Foxn1nu/Foxn1nu, colon uptake
[12] = athymic NMRI-Foxn1nu/Foxn1nu, femur uptake
[13] = athymic NMRI-Foxn1nu/Foxn1nu, muscle uptake
[14] = athymic NMRI-Foxn1nu/Foxn1nu, pancreas uptake
[15] = athymic NMRI-Foxn1nu/Foxn1nu, small intestine uptake
[16] = athymic NMRI-Foxn1nu/Foxn1nu, spleen uptake
[17] = athymic NMRI-Foxn1nu/Foxn1nu, stomach uptake
[18] = athymic NMRI-Foxn1nu/Foxn1nu, tumor-to-blood ratio
[19] = athymic NMRI-Foxn1nu/Foxn1nu, tumor-to-kidney ratio
[20] = athymic NMRI-Foxn1nu/Foxn1nu, tumor-to-liver ratio
[21] = athymic NMRI-Foxn1nu/Foxn1nu, tumor-to-muscle ratio
[22] = athymic NMRI-Foxn1nu/Foxn1nu, tumor-to-pancreas ratio

| SMILES | DU4475 tumor uptake after two hours as % of the 1 h-value [1] | higher uptake in CMKLR1-positive DU4475 tumors than in target-negative A549 tumors [1] [fold] | tissue uptake at 1 h (in vivo; [2]) [%ID/g] | tissue uptake at 1 h (in vivo; [3]) [%ID/g] | tissue uptake at 2 h (in vivo; [3]) [%ID/g] | tissue uptake at 1 h (in vivo; [4]) [%ID/g] | tissue uptake at 2 h (in vivo; [4]) [%ID/g] | tissue uptake at 1 h (in vivo; [5]) [%ID/g] | tissue uptake at 2 h (in vivo; [5]) [%ID/g] | tissue uptake at 1 h (in vivo; [6]) [%ID/g] | tissue uptake at 2 h (in vivo; [6]) [%ID/g] | tissue uptake at 1 h (in vivo; [7]) [%ID/g] | tissue uptake at 2 h (in vivo; [7]) [%ID/g] | tissue uptake at 1 h (in vivo; [8]) [%ID/g] | tissue uptake at 2 h (in vivo; [8]) [%ID/g] | tissue uptake at 1 h (in vivo; [9]) [%ID/g] | tissue uptake at 1 h (in vivo; [10]) [%ID/g] | tissue uptake at 1 h (in vivo; [11]) [%ID/g] | tissue uptake at 2 h (in vivo; [11]) [%ID/g] | tissue uptake at 1 h (in vivo; [12]) [%ID/g] | other results |
| --- | --- | --- | --- | --- | --- | --- | --- | --- | --- | --- | --- | --- | --- | --- | --- | --- | --- | --- | --- | --- | --- |
| C[C@@H](NC(=O)[C@H](Cc1ccccc1)NC(=O)[C@H](CCCNC(N)=O)NC(=O)CNC(=O)[C@@H]1C[C@@H](O)CN1C(=O)[C@H](CC1CCCCC1)NC(=O)[C@H](Cc1ccc(O)cc1)NC(=O)CCCCCCCCCNC(=O)CN1CCN(CC(=O)O)CCN(CC(=O)O)CCN(CC(=O)O)CC1)C(=O)N1Cc2ccccc2C[C@H]1C(=O)N[C@@H](CO)C(=O)O [[^68Ga]Ga-DOTA-ADX-CG34, metal not drawn] ({DOTA}-[NH(CH2)9CO]Y[Cha][Hyp]G[Cit]F[dA][Tic]S-OH) | approx. 68% | 2.3 | 2.7 | 6.2 | 4.2 | 2.8 | 0.8 | 2.2 | 1.2 | 10.3 | 5.5 | 14.2 | 12.5 | 7.1 | 3.9 | 1.1 | 7.8 | 3.2 | 2.3 | 1.3 | tissue uptake at 2 h (in vivo; [12]): 0.7 %ID/g; tissue uptake at 2 h (in vivo; [13]): 0.6 %ID/g; tissue uptake at 1 h (in vivo; [14]): 1.7 %ID/g; tissue uptake at 2 h (in vivo; [14]): 1.1 %ID/g; tissue uptake at 1 h (in vivo; [15]): 3.8 %ID/g; tissue uptake at 2 h (in vivo; [15]): 4.4 %ID/g; tissue uptake at 2 h (in vivo; [16]): 5.4 %ID/g; tissue uptake at 1 h (in vivo; [17]): 2.2 %ID/g; tissue uptake at 2 h (in vivo; [17]): 1.5 %ID/g; tissue to tissue ratio at 1 h (in vivo; [18]): 3; tissue to tissue ratio at 2 h (in vivo; [18]): 5.7; tissue to tissue ratio at 1 h (in vivo; [19]): 0.8; tissue to tissue ratio at 2 h (in vivo; [19]): 0.8; tissue to tissue ratio at 1 h (in vivo; [20]): 0.4; tissue to tissue ratio at 2 h (in vivo; [20]): 0.3; tissue to tissue ratio at 1 h (in vivo; [21]): 6.3; tissue to tissue ratio at 2 h (in vivo; [21]): 7.2; tissue to tissue ratio at 1 h (in vivo; [22]): 3.9; tissue to tissue ratio at 2 h (in vivo; [22]): 3.9 |
| C[C@@H](NC(=O)[C@H](Cc1ccccc1)NC(=O)[C@H](CCCNC(N)=O)NC(=O)CNC(=O)[C@@H]1C[C@@H](O)CN1C(=O)[C@H](CC1CCCCC1)NC(=O)[C@H](Cc1ccc(O)cc1)NC(=O)CCCCCNC(=O)CN1CCN(CC(=O)O)CCN(CC(=O)O)CCN(CC(=O)O)CC1)C(=O)N1Cc2ccccc2C[C@H]1C(=O)N[C@@H](CO)C(=O)O [[^68Ga]Ga-DOTA-AHX-CG34, metal not drawn] ({DOTA-Ahx}-Y[Cha][Hyp]G[Cit]F[dA][Tic]S-OH) | approx. 96% | 1.7 | 3 | 5.1 | 4.9 | 1.2 | 0.4 | 1.2 | 1.1 | 6.5 | 6.6 | 2.4 | 2.4 | 4.2 | 2.8 | 0.7 | 6.3 | 2.7 | 2.6 | 0.8 | tissue uptake at 2 h (in vivo; athymic NMRI-Foxn1nu/Foxn1nu, A549 tumor uptake): 1.4 %ID/g; tissue uptake at 2 h (in vivo; [12]): 0.7 %ID/g; tissue uptake at 2 h (in vivo; [13]): 0.5 %ID/g; tissue uptake at 1 h (in vivo; [14]): 1 %ID/g; tissue uptake at 2 h (in vivo; [14]): 0.8 %ID/g; tissue uptake at 1 h (in vivo; [15]): 2.1 %ID/g; tissue uptake at 2 h (in vivo; [15]): 2 %ID/g; tissue uptake at 2 h (in vivo; [16]): 5 %ID/g; tissue uptake at 1 h (in vivo; [17]): 1.7 %ID/g; tissue uptake at 2 h (in vivo; [17]): 1.3 %ID/g; tissue to tissue ratio at 1 h (in vivo; [18]): 5.9; tissue to tissue ratio at 2 h (in vivo; [18]): 13.3; tissue to tissue ratio at 1 h (in vivo; [19]): 0.9; tissue to tissue ratio at 2 h (in vivo; [19]): 0.7; tissue to tissue ratio at 1 h (in vivo; [20]): 2.3; tissue to tissue ratio at 2 h (in vivo; [20]): 2.2; tissue to tissue ratio at 1 h (in vivo; [21]): 8.5; tissue to tissue ratio at 2 h (in vivo; [21]): 11.4; tissue to tissue ratio at 1 h (in vivo; [22]): 5.6; tissue to tissue ratio at 2 h (in vivo; [22]): 6.2 |
